The text below walks through data of FireProtDB (doi:10.1021/bi00150a030).

For this data set the following is noted: Rattus norvegicus, pH 7, Fluorescence, Sodium-Potassium phosphate 0.1 M; for denaturant m value / denaturant midpoint (higher = more stable) / unfolding free energy: 15 °C, GdnHCl; for Tm / change of melting temperature, mutant - wild type (higher = more stable): Thermal.

Chain of Cytochrome c, somatic Y68F, P62898 (P62898 whole entry Y68F): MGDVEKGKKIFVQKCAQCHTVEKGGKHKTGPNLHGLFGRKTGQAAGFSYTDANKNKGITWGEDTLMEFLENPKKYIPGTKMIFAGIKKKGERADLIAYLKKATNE
Chain of Cytochrome c, somatic wild type, P62898 (P62898 whole entry): as the sequence (P62898 whole entry Y68F) above, with F68Y counted along it
Chain of Cytochrome c, somatic P31A|Y68F, P62898 P31A Y68F (P62898 whole entry P31A/Y68F): as the sequence (P62898 whole entry Y68F) above, with P31A counted along it
Chain of Cytochrome c, somatic P31A, P62898 (P62898 whole entry P31A): as the sequence (P62898 whole entry Y68F) above, with P31A, F68Y counted along it

For the substance Cytochrome c, somatic P31A, P62898, for the setting “structure 1I5T”, the denaturant m value came to 0.7 kcal/mol/M, the “denaturant midpoint (higher = more stable)” value (“denaturant midpoint” for short) turned out to be 5.38 M, the unfolding free energy is 3.76 kcal/mol and the Tm came out at 51 °C. Also, the “change of melting temperature, mutant - wild type (higher = more stable)” value (from here on “change of melting temperature, mutant”) (structure 1I5T) is -9 °C.

For the substance “Cytochrome c, somatic P31A|Y68F, P62898 P31A Y68F”, under “structure 1I5T”, the denaturant m value was determined as 1.16 kcal/mol/M, the “denaturant midpoint” value worked out at 5.81 M, the unfolding free energy worked out at 6.74 kcal/mol and the Tm was found to be 62 °C. Also, for the setting “structure 1I5T”, the “change of melting temperature, mutant” value was 2 °C.

Consider Cytochrome c, somatic Y68F, P62898, for which, where the note is “structure 1I5T”, the denaturant m value came out at 0.86 kcal/mol/M, the “denaturant midpoint” value came out at 8.33 M, the unfolding free energy was determined as 7.19 kcal/mol and the Tm came to 90 °C. Also, under “structure 1I5T”, the “change of melting temperature, mutant” value was found to be 30 °C.

Regarding Cytochrome c, somatic wild type, P62898, the denaturant m value was 1.21 kcal/mol/M, the “denaturant midpoint” value turned out to be 7.6 M, the unfolding free energy is 9.15 kcal/mol and the Tm came out at 60 °C.

Usually Tm stands for the temperature at the midpoint of the melting transition.
